In patent US20080227711A1 (LABORATOIRES SERONO, published 2008):

T1: CXCL8/IL-8 (UniProt P10145 28-99, limits assumed)
T1 sequence (looked up): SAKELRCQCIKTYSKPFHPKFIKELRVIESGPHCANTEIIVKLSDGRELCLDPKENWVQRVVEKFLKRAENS

T2: CXCL1/Gro-alpha (UniProt P09341 35-107)
T2 sequence: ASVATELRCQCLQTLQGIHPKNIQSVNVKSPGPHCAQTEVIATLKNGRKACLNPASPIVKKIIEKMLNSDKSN

T3: murine CXCL1/KC (murine, UniProt P12850 25-96)
T3 sequence: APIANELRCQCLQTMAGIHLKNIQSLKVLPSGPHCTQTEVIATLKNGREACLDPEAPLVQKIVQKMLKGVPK

T4: murine CXCL2/MIP-2 (murine, UniProt P10889 28-100)
T4 sequence: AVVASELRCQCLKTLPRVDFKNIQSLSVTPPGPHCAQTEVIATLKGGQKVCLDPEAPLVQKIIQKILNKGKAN

T5: CX3CL1/Fractalkine (UniProt P78423 25-100)
T5 sequence: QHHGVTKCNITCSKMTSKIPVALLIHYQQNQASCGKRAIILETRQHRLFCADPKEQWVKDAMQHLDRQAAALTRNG

T6: CXCL10/IP-10 (UniProt P02778 22-98)
T6 construct: also called 125I-CXCL10/IP-10
T6 sequence: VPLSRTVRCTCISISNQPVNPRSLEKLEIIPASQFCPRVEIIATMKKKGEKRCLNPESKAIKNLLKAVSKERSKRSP

T7: CTACK/CCL27 (UniProt Q9Y4X3 25-112)
T7 construct: also called 125I-CCL27/CTACK
T7 sequence: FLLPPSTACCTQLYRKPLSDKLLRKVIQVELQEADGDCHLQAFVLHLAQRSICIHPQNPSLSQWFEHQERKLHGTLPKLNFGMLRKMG

T8: IL-1α (UniProt P01583 113-271)
T8 construct: also called 125I-IL-1
T8 sequence: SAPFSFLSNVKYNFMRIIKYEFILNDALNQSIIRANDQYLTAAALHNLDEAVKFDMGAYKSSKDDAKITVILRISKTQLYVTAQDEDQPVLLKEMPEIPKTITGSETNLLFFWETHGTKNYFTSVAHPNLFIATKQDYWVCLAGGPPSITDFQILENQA

B1: CCL18/PARC (ligand)
chain: AQVGTNKELCCLVYTSWQIPQKFIVDYSETSPQCPKPGVILLTKRGRQICADPNKKWVQKYISDLKLNA
B2: CCL3/MIP-1-alpha (ligand)
chain: SLAADTPTACCFSYTSRQIPQNFIADYFETSSQCSKPGVIFLTKRSRQVCADPSEEWVQKYVSDLELSA
notes: also called MIP-1α
B3: CCL5/RANTES (ligand)
chain: SPYSSDTTPCCFAYIARPLPRAHIKEYFYTSGKCSNPAVVFVTRKNRQVCANPEKKWVREYINSLEMS
notes: also called 125I-CCL5/RANTES
B4: recombinant Evasin-3-6His purified from HEK293 cells (other)
chain: LVSTIESRTSGDGADNFDVVSCNKNCTSGQNECPEGCFCGLLGQNKKGHCYKIIGNLSGEPPVVRRHHHHHH
modifications: glycosylation on the S and T residues of the N-terminal sequence LVSTIESRTS (80% of the mature protein); heterogeneous post-translational modification, smear of 20-30 Kd
notes: also called Evasin-3-HIS; mature Evasin-3-HIS
B5: CCL4/MIP-1-beta (ligand)
chain: APMGSDPPTACCFSYTARKLPRNFVVDYYETSSLCSQPAVVFQTKRSKQVCADPSESWVQEYVYDLELN
notes: also called MIP-1β
B6: TARC/CCL17 (ligand)
chain: ARGTNVGRECCLEYFKGAIPLRKLKTWYQTSEDCSRDAIVFVTVQGRAICSDPNNKRVKNAVKYLQSLERS
notes: also called 125I-CCL17/TARC

Key:
[1] = molecular target: B4; experiment: SPR (Biacore 3000), Evasin-3-6His immobilized on CM4 chip, chemokine injected
[2] = molecular target: B4; experiment: competition for BS3 cross-linking of 125I-CXCL8/IL-8 to recombinant Evasin-3 in HEK293 supernatant, SDS-PAGE autoradiography
[3] = molecular target: B4; experiment: BS3 cross-linking of 125I-labelled protein to Evasin-3-6His, SDS-PAGE autoradiography (FIG. 7)
[4] = molecular target: T1, CXCL8/IL-8; experiment: cell-based or functional assay
[5] = molecular target: T2, CXCL1/Gro-alpha; experiment: cell-based or functional assay
[6] = molecular target: T1, CXCL8/IL-8; experiment: SPR (Biacore 3000), Evasin-3-6His immobilized on CM4 chip, Kd=kd/ka
[7] = molecular target: T2, CXCL1/Gro-alpha; experiment: as above
[8] = molecular target: T3, murine CXCL1/KC; experiment: as above
[9] = molecular target: T4, murine CXCL2/MIP-2; experiment: as above
[10] = molecular target: T9, CCL11/eotaxin (UniProt P51671 24-97); experiment: SPR (Biacore 3000), Evasin-3-6His immobilized on CM4 chip, chemokine injected
T9 construct: also called 125I-eotaxin

[11] = molecular target: T10, CXCL12/SDF-1-alpha (UniProt P48061 22-89); experiment: as above
T10 construct: also called SDF-1α

[12] = molecular target: T5, CX3CL1/Fractalkine; experiment: as above
[13] = molecular target: T11, CCL2/MCP-1 (UniProt P13500 24-99); experiment: BS3 cross-linking of 125I-labelled protein to Evasin-3-6His, SDS-PAGE autoradiography (FIG. 7)
T11 construct: also called 125I-MCP-1

[14] = molecular target: T6, CXCL10/IP-10; experiment: as above
[15] = molecular target: T7, CTACK/CCL27; experiment: as above
[16] = molecular target: T12, IL-2 (UniProt P60568 21-153); experiment: as above
T12 construct: also called 125I-IL-2

[17] = molecular target: T8, IL-1α; experiment: as above
[18] = molecular target: T1, CXCL8/IL-8; experiment: SPR (Biacore 3000), Evasin-3-6His immobilized on CM4 chip, chemokine injected, Langmuir global fit
[19] = molecular target: T2, CXCL1/Gro-alpha; experiment: as above
[20] = molecular target: T3, murine CXCL1/KC; experiment: as above
[21] = molecular target: T4, murine CXCL2/MIP-2; experiment: as above
[22] = molecular target: T1, CXCL8/IL-8; experiment: equilibrium competition receptor binding assay: inhibition of 0.1 nM 125I-IL-8 binding to CHO/CXCR1 cells

T9 sequence (P51671 24-97 limits assumed): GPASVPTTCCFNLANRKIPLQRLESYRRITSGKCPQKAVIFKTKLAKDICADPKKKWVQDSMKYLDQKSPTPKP
T12 sequence (P60568 21-153 limits assumed): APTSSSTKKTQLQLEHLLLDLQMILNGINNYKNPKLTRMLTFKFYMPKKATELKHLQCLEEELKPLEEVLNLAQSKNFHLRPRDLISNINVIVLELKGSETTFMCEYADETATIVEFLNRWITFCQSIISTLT
T11 sequence (P13500 24-99 limits assumed): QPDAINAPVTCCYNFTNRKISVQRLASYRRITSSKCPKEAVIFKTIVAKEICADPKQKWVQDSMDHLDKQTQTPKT
T10 sequence (P48061 22-89 limits assumed): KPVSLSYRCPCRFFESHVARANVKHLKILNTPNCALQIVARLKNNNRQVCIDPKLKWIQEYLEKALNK

**Q.** Does B1 bind [1]?
**A.** no binding (tested: 0.5 µg/ml chemokine)

**Q.** Does B2 bind [2]?
**A.** no binding (tested: 1 µg unlabelled (500 fold excess))

**Q.** Does B3 bind [3]?
**A.** no binding (tested: 0.23 nM 125I-labelled protein)

**Q.** For B4, which “IC50 of inhibition of IL-8 induced chemotaxis of human neutrophils” value [4] is on record?
**A.** 16 nM

**Q.** What about the “IC50 of inhibition of Gro-alpha induced chemotaxis of human neutrophils” value [5] of the same binder?
**A.** 20 nM

**Q.** And the Kd [6]?
**A.** 0.22 nM

**Q.** And the Kd [7]?
**A.** 0.45 nM

**Q.** What about the Kd [8] of the same binder?
**A.** 5.34 nM

**Q.** What about the Kd [9] of the same binder?
**A.** 0.18 nM

**Q.** Does B4 bind [10]?
**A.** no binding (tested: 0.5 µg/ml chemokine)

**Q.** Does B4 bind [11]?
**A.** no binding (tested: 0.5 µg/ml chemokine)

**Q.** Does B4 bind [12]?
**A.** no binding (tested: 0.5 µg/ml chemokine)

**Q.** Does B4 bind [13]?
**A.** no binding (tested: 0.23 nM 125I-labelled protein)

**Q.** Does B4 bind [14]?
**A.** no binding (tested: 0.23 nM 125I-labelled protein)

**Q.** Does B4 bind [15]?
**A.** no binding (tested: 0.23 nM 125I-labelled protein)

**Q.** Does B4 bind [16]?
**A.** no binding (tested: 0.23 nM 125I-labelled protein)

**Q.** Does B4 bind [17]?
**A.** no binding (tested: 0.23 nM 125I-labelled protein)

**Q.** What about the koff [18] of the same binder?
**A.** 0.000178 s⁻¹

**Q.** What about the kon [18] of the same binder?
**A.** 826000 M⁻¹ s⁻¹

**Q.** And the koff [19]?
**A.** 0.00117 s⁻¹

**Q.** And the kon [19]?
**A.** 2.6e+06 M⁻¹ s⁻¹

**Q.** And the koff [20]?
**A.** 0.0012 s⁻¹

**Q.** What about the kon [20] of the same binder?
**A.** 225000 M⁻¹ s⁻¹

**Q.** What about the koff [21] of the same binder?
**A.** 0.000255 s⁻¹

**Q.** What about the kon [21] of the same binder?
**A.** 1.43e+06 M⁻¹ s⁻¹

**Q.** And the IC50 [22]?
**A.** 1 nM

**Q.** Does B5 bind [1]?
**A.** no binding (tested: 0.5 µg/ml chemokine)

**Q.** Does B6 bind [3]?
**A.** no binding (tested: 0.23 nM 125I-labelled protein)
